Measurements published in a protein production outcome set (Wang et al. 2014).

Test: label from the status in PepcDB records

| Sequence | protein production |
| --- | --- |
| MGHPPQLPGGRCPMSQTMDFDTLRRAMADNYEQPEGPARNARAEQLLTEAEKLNIPLAVIEALGHQLKVYNYSSEKDKMFVPFARLLRMWDERPEDFDEYEIHSLHWVFKWMSAGMLGQPHIPLASIEKWLGEMEHRYRLAGHSERAVRSAEFSVANHIGDLARAERAYAAWLAADRDSMADCHACELHDQGWWQARKGADADALEVWRPVVEGEYVCAHEPHAILASSLVPLLRLGRLDEARAHHLRGFRLIRPMESMRGAYADHVEFCALSGNEARALELLAERPAYFTDSGEPRSKLDFMAVVALLMDRLVELGLGEQTVPGPAGRVWSARELAAHARAEALALAARFDERNGTAHVSERARERMDRRPLVDRLPLGVRSTRPAPTAPRPPAAPDSAPAPAVERDLRDVLAEARGRSDALRPDAMDAWAAVARAAGDHELDARDRAEIADHEAMSRGPEGAPLFERAAELYAEAGDPGEALAARARGAYVRALTGHSDDALRTINDLHRQVRALFAKDGTGVRQTAAVLVGRARILVHRVHETEGAGTTVAAAEEAVRELLEFAEPHIAQVRLASRAAEARAMLGELAALTGDAMTAAELLAQAAEGFLAAGLPWFAVEYEARLAGIARELGDAVEAERAARSALEHGVEYLEPAGQAQLHLQLAEVLGTTGQFGPAAEHALEAAHWADEAGEGPTFGAWARHQLGGFLLQQGRWAEAAEVLESALPDLTAETHGDGALVQTQWWLGDCHTELGEHREAAERWLRAAEIARHWPEQRDHAMLAHLAAEALGHAGLPAEADRAYTRAGDLWRDLGNVHGLARALRARAWLAAREEDELDPARELMAQAVRECEAALEGATEGEDGARERLVAELGHTHRQFGDLVARSVQDGDRGADFQGAFEEALGHVTRAVAVFAPLGASALDLRTGAELAAGWLEADLHRPAEATARARAVLAAYANRQEADDETARARCAEADRMLELLGTRTGQ | failed |
| MGHVLIEMMGIKKGDFVLDVGCGTGRQALNVAGIIGPAGKLTGIDPSSYRIELARKKFEGDSSGNVRFLVRQAENLQDIPDNSINHAYFCSSFHWVDDKKTALNEIFRVLRPGGKVGMTTLDRNSPNTMKALIDPILAKFGIERRHEWHRGMKKVTAPELHDLLSGAGFTSISIEPRAVPRKYNSPEEFLQHPEEKDSSRGILRDISNETLEKLRQEITEEFRKAQTPEDIGFGNITLFAIATKAQEGLEHHHHHH | not failed |
| MGIGFKGRKTLLRELVKYMVTLCISLVVLALLYIFINTIAMNTGFSHPANYNEREAEKLAPKLETIDKVTADMIPDTMSYAILNKETKQKTAGTIKEKDLQLVKKKIEKKPYVNYKQKGYLVIERNNEYCVLQYSLRADFSSPLLRKYLPNYELTSICILIILLIIVISIITTYFANRLRKHFETLNVITRYIKEQNLQFTPEFTHIKEFDDVIDSLIEMRDALQSSLEALWRLEKNKKEQIGALAHEIKIPITIIKGNAELLSLSMQNEEQAEYTKYILGAGNQIEQYIYQLIHLSKTEDALTIHLEKASVDELTETLVKDISAYKGNKNINISFKKENLMKEAKIDWQLLHRALLNILTNAVDYTPEGGTVSVHAESILRYFIFL | failed |
| MGIQETDPLTQLSLPPGFRFYPTDEELMVQYLCRKAAGYDFSLQLIAEIDLYKFDPWVLPNKALFGEKEWYFFSPRDRKYPNGSRPNRVAGSGYWKATGTDKIISTEGQRVGIKKALVFYIGKAPKGTKTNWIMHEYRLIEPSRRNGSTKLDDWVLCRIYKKQSSAQKQVYDNGIANAREFSNNGTSSTTSSSSHFEDVLDSFHQEIDNRNFQFSNPNRISSLRPDLTEQKTGFHGLADTSNFDWASFAGNVEHNNSVPELGMSHVVPNLEYNCGYLKTEEEVESSHGFNNSGELAQKGYGVDSFGYSGQVGGFGFM | failed |
| MGIYQWRDKKKPSGGKRRYYYKVKRKYAAGRPPTYTTLSAAEEEERKPVRARGGSYKIKAKKVAFAVVSNPKTGEARKARILRIVETPAHREYARRGIIVKGAVIDTTLGRAVVTSRPGQEGVVNAVLLEEQGQKQLEHHHHHH | not failed |
| MGKEAVTGKVRKLTVQLDHQTGDLKGCSRRGPTPRSRAPGAKLSAPEAGPPRRGPLPRGGAGRDTLLGAKATPSSPAARRYVTALGPPQPRGSTDSACAALPQPVPHEPREAAFRLAPASERGASVSPARIPRRRRRVPAMWDPRAARTPPRELAMLLCNKSNAFYNLGKWNEAFLAAKECLQWDPTYVKGYYRAGYSLLHLLQPYEAARMFFEGLRLLQRSPDQLQVPDFLVGIFTTMSSDSIVLQSFLPCFDHIFTTGFSTEVWQYVIQKLAKKGLWHQSFLLLSAKKDRLPSNIHVSELSLQSLFEKYVFIGFYEKLEQVPKLVQWLVSIGANIETIGPNPLHALMRLCIQARESQLFRWVMDQKPEWKEHINHRDDAGCTVLHVAAAHFPGYTSRRQTEDVQMLLSFGADPTLLDGHARTVVDVLKRNKNFRAIDKINSHLEKLASSSKGLSALQEAFISKQ | failed |
| MGKIHELSSVLADQIAAGEVVERPASVVKELVENAVDAHATQVDILVQESGVQSIRVIDDGDGIDDAEVLTAFKRHATSKITSREDLFRVHSLGFRGEALPSIASVADVVMNTSTGATGTSIHYRGGKLLQQSPAPLRQGTDITVTDLFFNTPARLKYLKSPQTELANILDVVNRIALSYPAVAFRLVHNAKELLKTAGRGDLQQVIAGIYGVQNARKMVAIQGSTTDFKLSGFVALPELTRASRQYITVLINGRAIKNQQLTKAVIKGYGSKLMVGRYPIAVIALTMDPLLVDVNVHPTKQEVRLSKEPELAKLVSTTITDRLVDVNLIPSALTNLGSHRREHLNTDQLAMDLNAVSSQYQVADKTTPASTEQFAASLAAATMQPSSATTMVSTTSAQPSAVNRAAVSAVVPSESAASSANQPIMISHRDELTATPVQAFDQRYQSESGALPFGETAEPLETSTAASAPTSEAPDTERFPQLRYLGQMHGTYLLAEADDGMYILDQHAAQERINYEYYRQAIGEVSADQQNLLVPIILDYPTSDVLKIKEKLPLLAELGIHLESFGGNSFIVHAHPTWFKAGQEEDTIREMIDWLLQDDKLTVAQFREKSAIMMSCKRAIKANHHLDDQQARALLAKLPTCENPFNCPHGRPVTVHFTNSDMERMFKRIQDSHEARD | failed |
| MGKIQELSEQLANQIAAGEVVERPASVVKELVENALDAGSTQIDIFIEEAGLKTIQIIDNGEGIAKEDVLNAFKRHATSKIHTRDDLFRIRSLGFRGEALPSIASVSEMIVETATAEEEEGSYVILKGGKVEENRPAALRKGTKMTVSNLFYNTPARLKYVKTIQTELANIGDIVNRLALSHPKVAFRLVHDGHKMMSTTGNGDLKQTIAGIYGISTAKKMLKIEGKDLDFTLTGYVSLPEVTRASRNYLSTIINGRYIKNFALNKAIVAGYGSKLMVGRFPIAVLEIEMDPLLVDVNVHPTKQEVRLSKEKDLMALIEQAIQEVLSQEQLIPNAADNLRFKKKLPPEPKAEQMEIPLSTEQPAVKQRPGSLSYNPATGRFYAEHATDETPASSAPEAVNQTERAVDPMDDPFAPPVPESTSVAEETSAYETSSAAADSANHWETASNEQQVIAEETKITEVPDSEPSLRSSEAADEVFQEEMKLHPEFDANSAASQRELKQALNKLEEERPTERFPELEYFGQMHGTYLFAQSKDGLFIIDQHAAQERIKYEYFREKIGEVSDDLQELLVPIVIDYPNSDALKIKEQKETLAEVGIHLEDFGQNSFIVRAHPTWYPAGEEESIVREMIDMLLTTGSVSVKKFREATAIMMSCKRSIKANHYLNEQQARVLLKDLALCENPFNCPHGRPVLIHFTNSDMERMFKRIQDPH | failed |
| MGKKYSMRRRIWQAVIEIIIGTCLLILLLLGLTFFLRQIGQISGSETIRLSLDSDNLTISDIERDMKHYPYDYIIFDNDTSKILGGHYVKSDVPSFVASKQSSHNITEGEITYTYSSNKHFSVVLRQNSMPEFTNHTLRSISYNQFTYLFFFLGEIILIIFSVYHLIREFSKNFQAVQKIALKMGEITTFPEQEESKIIEFDQVLNNLYSKSKELAFLIEAERHEKHDLSFQVAALSHDVKTPLTVLKGNIELLEMTEVNEQQADFIESMKNSLTVFDKYFNTMISYTKLLNDENDYKATISLEDFLIDLSVELEELSTTYQVDYQLVKKTDLTTFYGNTLALSRALINIFVNACQYAKEGEKIVSLSIYDDEKYLYFEIWNNGHPFSEQAKKNAGKLFFTEDTGRSGKHYGIGLSFAQGVALKHQGNLILSNPQKGGAEVILKIKK | failed |
| MGKTPEEVDEVNKAAFSTSEASATIAAMNQLHKPVDTVVAHISPEAPAAKVMAEGDVITQVAGAKATGPSQVRDAVRAKKPGETISIGFLRDGKQLTREVTLGTHPEDDKVAFLGVSMTARPLEHHHHHH | not failed |
| MGKVQPVYWRQLRDIEMENNFLLDVRTPDEFSLNTLPGAVNIPLDELRDRLDELPKDKMIYTFCAVGLRGYLAYRILVQHGFEKVRNLSGGLKTYHAAAAPIILREESENEVPLEHHHHHH | not failed |
| MGLFDEVVGAFLKGDAGKYQAILSWVEEQGGIQVLLEKLQSGGLGAILSTWLSNQQRNQSVSGEQLESALGTNAVSDLGQKLGVDTSTASSLLAEQLPKIIDALSPQGEVSAQANNDLLSAGMELLKGKLFR | not failed |
| MGLFSKRQIGNQYETLAKQYLQRQGLRFLDQNYLTKFGEIDLIFQQDETIVFVEVKYRKNDHFGSAAEMVTNAKMRKLIKTAQVWLSQQRTMNTIDYRFDVIAIHDSGRDINWIQNAISEG | failed |
| MGLGRYLPYLLSAALLLLCGCERTDTHAQPAKENGEIKVAPYGSWQSPLSAADVFKQTDDIAELQSVGNAIYFAESSGRDQGKVGIKRLDGLGKVTQVVLPDFNVKSTVHEYGGAAFLGIGKSLFATKMQDQLFYRFAPNQPPLPLTPNGTRHADCVAYPKGSRIICVREDHRQGGEPKASLVTINLNFAGEGDTFVSGHDFISSPTISPDNTQLAWITWEHPYMPWDNSVLWLGELDRKGQLKNVRKVSTPEASSVAQPLFGPDGKLYVVSDISNWWNIYRVTPSYTLEPVLSKNAEFAVPDWRLGNHNYAFENATTLIASYVEGNRAALLRIHLDSELTESLAIDFAEITQVVKGEDGVYFVGAKATPEKGIYRVVGRGTELVYAPALANLNPNYVSRAINIAFATGKDQQAYGYFYGPVNPKYVPPHDTRPPLIVMLHGGPTSRASLAYRSEIQFWTSRGFAVLDLNFRGSSGFGRAYRQSLYGKWGESDVEDAVNAAKYLVAKGWVDANKLAIRGISAGGLTVMSSLAFYNVFQAGVSYEGISDVEQLAKSTHKFESGYLDQLIGPYPENTDRYRELSPLNHLDGLNEPLLIFQSLRNKIVPTSQSRQIYDALKAKGVPTAYIDYGDDSDEGRTPEHKAAGLETELAFYGQVFKFTPAGKLPPLILDNISALTP | failed |
| MGLGSSNRQTDDWNAKLYDERHRFVSAYGEDLIQWLAPKEGECVLDLGCGTGDLTEQIHQLGSRVIGVDVSESMIEQAKGKFPHLDFQVAEATDLSFSEKFDAIFSNAVLHWIKDAEEALTVIYRSLKPGGRFVAEFGGKGNVETIVNTLADTMSQADSRWSKEELPWFFPSIGQYTSLMEQVGFRVTHALHFNRPTLLEDGDGIRHWLAMFAESVLEGKSETERAEIVRFVEAEVKDALFDGTNWWADYKRIRVVGMKQL | failed |
| MGLKGFAEGGIASIVAGCSTHPLDLIKVRMQLQGESAPIQTNLRPALAFQTSTTVNAPPLRVGVIGVGSRLIREEGMRALFSGVSATVLRQTLYSTTRMGLYDIIKGEWTDPETKTMPLMKKIGAGAIAGAIGAAVGNPADVAMVRMQADGRLPLTDRRNYKSVLDAITQMIRGEGVTSLWRGSSLTINRAMLVTSSQLASYDSVKETILEKGLLKDGLGTHVSASFAAGFVASVASNPVDVIKTRVMNMKVVAGVAPPYKGAVDCALKTVKAEGIMSLYKGFIPTVSRQAPFTVVLFVTLEQVKKLFKDYDF | failed |
| MGLLVVKAQRQLRKIDNSKVFQGVVIAVILLSALLIGAKTHNLSSNVVAILLLMDVAVTVFFAIEISIRYLACPQKKNFFKSGWNIFDTVIVIGSLVPSGGSGVLLARLLRVFRVLRLVSMVPELRLLINALLKAIPRMGYIALLMFVIFYIYAAIGSMYFHSINEVLWGDVSISMLTLFRVATFEDWTDVMYETMAVHPLSWIYYLTFIFLTAFIFLNMMVGTVLEVMSQEHEQFRAEQHGESGDGGEPASRAQIDKLESEIAEIKALLLAKT | failed |
